In the RNAGym collection of RNA variant scans (doi:10.7554/elife.80360) one finds self-cleavage data, which are given here for 54 variants.

B1: Twister Ribozyme (parent)
chain: AACACUGCCAAUGCCGGUCCCAAGCCCGGAUAAAAGUGGAGGGGGCGG

Variants of B1 are the subject of the series. Nature of the series: self-cleavage, relative activity (ratio to wild type); higher = more cleavage; co-transcriptional.
For the variant GACACUGCCAAUGCCGGUCCCAAGCCCGGACAAAAGUGGAGGGGGCGG, the self-cleavage was 0.409. Regarding AACACUGCCAAUGCCGGUCCCAAGCCAGGAUAAAAGUGGAGGGAGCGG, the self-cleavage came to 0.648. The figure for AACACUGCCAAUGCCGGUCCCAAGCCCGGAUAAAAUUGGCGGGGGCGG is 0.122; for AACACUGCCAAUGCCGGUACCAAGCCCGGAUAAAAGUGGAGCGGGCGG it is 0.197. Take AACACUGCCAAUGCGGGUCCCAAGCCCGGAUAAAAGUGGAGCGGGCGG: the self-cleavage was determined as 0.0975.

Consider AACACUGCCAAUGCCGAUCCCAAGCCAGGAUAAAAGUGGAGGGGGCGG, for which the self-cleavage came to 0.221.

Take AACACUGCCAAUGCCUGUCCCAAGCACGGAUAAAAGUGGAGGGGGCGG: the self-cleavage came to 0.45.

In the case of AACACUGCCAAUGCCCGUCCCAAGCCCGGAUAAAAGUGGAGGGCGCGG, the self-cleavage came out at 0.649.

As for AACACUGCCCAUGCCGGUCCUAAGCCCGGAUAAAAGUGGAGGGGGCGG, the self-cleavage came out at 0.122. Next, AACACUGCCAAUGCCGGUCCCUAGCCCGGAUAAAAGUGGCGGGGGCGG: 0.184; AACACUGCCAAUGCCGGUCCCAAGCCCGGAUAAAAGUUGAGGGGGGGG: 0.818. As to AACACUGCCAAUGCCCGUCCCAAGCCCCGAUAAAAGUGGAGGGGGCGG, the self-cleavage stood at 0.306. Regarding AACACAGCCAAUGCCGGUCCCAAGCCCGGAUAAAAGAGGAGGGGGCGG, the self-cleavage amounted to 0.142. The figure for AACACUGCCACUGCCGGUCCCAAGCCCGGAUAAAAGUGGAGGUGGCGG is 0.252; for AACACGGCCAAUGCCGGUCCCAAGCCCGGAUAAAAGUGGAGGGCGCGG it is 0.234. As to AACACUGCCAAUGCCGGUCCCAAGCCCGGAUGAAAGUGGAGGGGACGG, the self-cleavage amounted to 0.921.

For the variant AACACUGCCAAUGCCGGUCCCAAGCACGGAUAAAAGCGGAGGGGGCGG, the self-cleavage worked out at 0.105. Next, AACACUGCCCAUCCCGGUCCCAAGCCCGGAUAAAAGUGGAGGGGGCGG: 0.408; AACACUUCCAAUGCCGGUCCCAAGCCCGGACAAAAGUGGAGGGGGCGG: 0.111; AACACUGCCAAUGCCGAUCCCAAGCCCGGAUAAAAGAGGAGGGGGCGG: 0.207. Consider AACACUGCCAAUGCCGGUCCCAAGCCCGGCUAAAUGUGGAGGGGGCGG, for which the self-cleavage was determined as 0.912. The figure for AACACUGACAAUGCCGGUCCCAAGCCCGGAUAAAAGUAGAGGGGGCGG is 0.343; for AAAACUGCCAAUGCCGGUCCCAAGCCCGGAUAGAAGUGGAGGGGGCGG it is 0.0867.

Take AACACUGCCAAUCCCGGUCCCAAGCCCGGAUAAGAGUGGAGGGGGCGG: the self-cleavage stood at 0.253.

Regarding AACACUGCCAAUCCCGGUCCCAAGCCCGGAUAAUAGUGGAGGGGGCGG, the self-cleavage stood at 0.137.

Take AACACUGCCAAUGCCGGUCCCAAGCCGGGAUAAAAGUGGAGGGCGCGG: the self-cleavage stood at 0.133. Take AACAUCGCCAAUGCCGGUCCCAAGCCCGGAUAAAAGUGGAGGGGGCGG: the self-cleavage was found to be 0.691. For the variant AACACUGCCAAUGCCGGUCCCAAGUCCGGAUAAAAGUGGAGGUGGCGG, the self-cleavage was 0.182. The figure for AACACUGCCUAUGCCGGUCCCAAGCCCGGCUAAAAGUGGAGGGGGCGG is 0.784.

On to AACACUGCCAAUGCCGGUCCCAAGCCCGCAUAAAAGUGGAGGGUGCGG, for which the self-cleavage came to 0.777. As to AACAGUGCCAAUGCCGGUCCCAAGCCCGGAUAAAAGUGGAGGGGGCGC, the self-cleavage was 0.77.

For the variant GACACUGCCAAUGCCGGUCCCAAGCCCGGAUAAGAGUGGAGGGGGCGG, the self-cleavage turned out to be 0.361.

AGCACUGCCAAUGCCGGUCCCAAGCCCGGAUAAAAGUAGAGGGGGCGG: the self-cleavage is 0.448. The figure for AACACUGCCAAUGCCGGUCCCAAUCCCGGAGAAAAGUGGAGGGGGCGG is 0.13; for AACACUGCCAAUGCCGGUCCCAAACCCGGAUAAAAGUAGAGGGGGCGG it is 0.101.

As for AACACUGCCAAUCCCGGUCCCAAGCCCGGAUUAAAGUGGAGGGGGCGG, the self-cleavage came to 0.108. Consider AACACUGCCAAUGCCGGUCCCUAGCCCCGAUAAAAGUGGAGGGGGCGG, for which the self-cleavage came out at 0.548.

With AACCCUGCCAAUGCCGGUCCCAACCCCGGAUAAAAGUGGAGGGGGCGG, the self-cleavage worked out at 0.078. On to AACGCUGCCAAUGCCGGUCCCCAGCCCGGAUAAAAGUGGAGGGGGCGG, for which the self-cleavage was determined as 1.01. AACACUGCCACUGCCGGUCACAAGCCCGGAUAAAAGUGGAGGGGGCGG: the self-cleavage is 0.129.

For AACACUGCCAAUGCCGGUGCCAAGCCCGGAUAAAAGUGGAGGGGGCGU, the self-cleavage is 0.218. The figure for GACACUGCCAAUGCCGGUCCCAAGCCCGGAUAAAAGUGGAGGGGCCGG is 0.254; for AACACUGCCGAUGCCGGUCCCAAGCCCGAAUAAAAGUGGAGGGGGCGG it is 1.09; for AACACUGCCAAUGCCGGUCCCAAGCCCCGAUGAAAGUGGAGGGGGCGG it is 0.734. The figure for AACACUGCCAAUGCUGGUCCCAAGCCCGGAUAAAAGUGGAGGGGGUGG is 0.917; for AACACUGCCAAUGCCGGUCCCAAGCCGGGAUAAAAGUGGUGGGGGCGG it is 0.107. Turning to AACACUGCCAAUGCGGGUCCCAAGCCCGGAUAUAAGUGGAGGGGGCGG, the self-cleavage was found to be 0.121.

Turning to AACACUGCCAAUGCGUGUCCCAAGCCCGGAUAAAAGUGGAGGGGGCGG, the self-cleavage is 0.814.

As for AACACUCCCAAUGCCGGUCCCAAGCCCGGAUAAAAGUGGAGGUGGCGG, the self-cleavage was found to be 0.0777.

Take AACACUGCCAAUGCCGGUCCCAAGCCCGGAUAAAAGUGGAGUGGGAGG: the self-cleavage was found to be 0.162.

For AACACUGCCAAUGCCGGUCACAAGCCCGGAUAAAAGUGGAGGGUGCGG, the self-cleavage came to 0.107. With AACACUGCCAAUGCCGGUCCCAAGCCCGGAUGAAAGUCGAGGGGGCGG, the self-cleavage came to 0.892.

With AACCCUGCCAAUGCCGGUCCCAAGCCCGGAUAAAAGUGGAUGGGGCGG, the self-cleavage stood at 0.0895. For AACACAUCCAAUGCCGGUCCCAAGCCCGGAUAAAAGUGGAGGGGGCGG, the self-cleavage turned out to be 0.101.
